Key:
[1] = target: D188A-RdINVΔ21–139, truncated inactivated mutant of Rhodotorula dairenensis β-fructofuranosidase (Rhodotorula dairenensis CECT 1416); assay: crystal structure; D188A-RdINVΔ21–139, deglycosylated, complexes with fructose, sucrose or raffinose; PEG 3350, Bis-Tris pH 5.5; space group P2(1), four molecules in the asymmetric unit
[2] = target: β-fructofuranosidase from Rhodotorula dairenensis (RdINV), wild type (Rhodotorula dairenensis CECT 1416); assay: crystal structure; wild-type RdINV, deglycosylated; 25% PEG 3350, 0.2 M ammonium acetate, 0.1 M Bis-Tris pH 5.5; space group C222(1), two molecules in the asymmetric unit

stoichiometry N [1]	stoichiometry N [2]	Substance
2	–	D188A-RdINVΔ21–139, truncated inactivated mutant of Rhodotorula dairenensis β-fructofuranosidase (enzyme)
–	2	β-fructofuranosidase from Rhodotorula dairenensis (RdINV), wild type (enzyme)

Reference: paper PMC9741242, “Insights into the Structure of the Highly Glycosylated Ffase from Rhodotorula dairenensis Enhance Its Biotechnological Potential” (International Journal of Molecular Sciences, 2022)
